Experimental data: article PMC6650801

Target: EGFR–eGFP fusion protein (epidermal growth factor receptor fused to the F64L, S65T mutant of GFP) (UniProt P00533)

In the case of “murine EGF (epidermal growth factor) (from UniProt P01132 977-1029) (ligand)”, the half recovery time T1/2 of EGFR–eGFP fluorescence in stripe FRAP on F1-10 cells, before and 2.5 min after 50 nM EGF is reported as 6.4 s.
